According to US20150344570A1 (published 2015):
One block for each binder: values may come before it.

Key:
[1] = target: T1, FcγRIIIa extracellular domain with C-terminal His tag (human, UniProt P08637 17-208); assay: SPR (Biacore), relative to GpH7-A5/GpH7-B3/GpL16-k0 = 100
T1 construct: extracellular domain; also called 3a; FcgRIIIa; not shown: His tag at the C terminus

[2] = target: T2, FcγRIIb extracellular domain with C-terminal His tag (human, UniProt P31994 43-217); assay: as above
T2 construct: extracellular domain; also called 2b; FcgRIIb; not shown: His tag at the C terminus
T2 sequence (looked up): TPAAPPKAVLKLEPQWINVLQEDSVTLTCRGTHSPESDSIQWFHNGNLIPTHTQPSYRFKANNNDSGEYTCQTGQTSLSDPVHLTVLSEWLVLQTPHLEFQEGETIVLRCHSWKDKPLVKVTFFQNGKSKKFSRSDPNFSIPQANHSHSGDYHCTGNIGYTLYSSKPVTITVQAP

T1 sequence (P08637 17-208): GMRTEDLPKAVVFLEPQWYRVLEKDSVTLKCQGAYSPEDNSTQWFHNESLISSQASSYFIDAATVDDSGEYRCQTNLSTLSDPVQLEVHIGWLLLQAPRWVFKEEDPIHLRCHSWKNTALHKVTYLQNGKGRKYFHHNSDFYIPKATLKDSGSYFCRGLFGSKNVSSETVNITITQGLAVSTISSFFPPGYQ

B1: GpH7-A5/GpH7-B3 variant P238_19Q/GpL16-k0 (antibody, human IgG1, kappa)
heavy 1: not shown
heavy 2: not shown
light: DIVMTQSPLSLPVTPGEPASISCQASESLVHSNRNTYLHWYLQKPGQSPQLLIYKVSNRFSGVPDRFSGSGSGTDFTLKISRVEAEDVGVYYCSQNTHVPPTFGQGTKVEIERTVAAPSVFIFPPSDEQLKSGTASVVCLLNNFYPREAKVQWKVDNALQSGNSQESVTEQDSKDSTYSLSSTLTLSKADYEKHKVYACEVTHQGLSSPVTKSFNRGEC
notes: IgG1, anti-glypican-3; also called He Ab
- He/Con_3a [1]: 55.8 % (control = 100)
- He/Con_2b [2]: 110 % (control = 100)

B3: GpH7-A5/GpH7-B3 variant P271_08L/GpL16-k0 (antibody, human IgG1, kappa)
heavy 1: not shown
heavy 2: not shown
light: DIVMTQSPLSLPVTPGEPASISCQASESLVHSNRNTYLHWYLQKPGQSPQLLIYKVSNRFSGVPDRFSGSGSGTDFTLKISRVEAEDVGVYYCSQNTHVPPTFGQGTKVEIERTVAAPSVFIFPPSDEQLKSGTASVVCLLNNFYPREAKVQWKVDNALQSGNSQESVTEQDSKDSTYSLSSTLTLSKADYEKHKVYACEVTHQGLSSPVTKSFNRGEC
notes: as for B1
- He/Con_3a [1]: 71 % (control = 100)
- He/Con_2b [2]: 103 % (control = 100)

B4: GpH7-A5/GpH7-B3 variant P271_09D/GpL16-k0 (antibody, human IgG1, kappa)
heavy 1: not shown
heavy 2: not shown
light: DIVMTQSPLSLPVTPGEPASISCQASESLVHSNRNTYLHWYLQKPGQSPQLLIYKVSNRFSGVPDRFSGSGSGTDFTLKISRVEAEDVGVYYCSQNTHVPPTFGQGTKVEIERTVAAPSVFIFPPSDEQLKSGTASVVCLLNNFYPREAKVQWKVDNALQSGNSQESVTEQDSKDSTYSLSSTLTLSKADYEKHKVYACEVTHQGLSSPVTKSFNRGEC
notes: as for B1
- He/Con_3a [1]: 93.1 % (control = 100)
- He/Con_2b [2]: 120 % (control = 100)

B8: GpH7-A5/GpH7-B3 variant S239_05P/GpL16-k0 (antibody, human IgG1, kappa)
heavy 1: not shown
heavy 2: not shown
light: DIVMTQSPLSLPVTPGEPASISCQASESLVHSNRNTYLHWYLQKPGQSPQLLIYKVSNRFSGVPDRFSGSGSGTDFTLKISRVEAEDVGVYYCSQNTHVPPTFGQGTKVEIERTVAAPSVFIFPPSDEQLKSGTASVVCLLNNFYPREAKVQWKVDNALQSGNSQESVTEQDSKDSTYSLSSTLTLSKADYEKHKVYACEVTHQGLSSPVTKSFNRGEC
notes: as for B1
- He/Con_3a [1]: 14.9 % (control = 100)
- He/Con_2b [2]: 102 % (control = 100)

Now from value to binder:

- He/Con_3a [1]: 49.7 % (control = 100)
- He/Con_2b [2]: 123 % (control = 100)
B2: GpH7-A5/GpH7-B3 variant P238_20W/GpL16-k0 (antibody, human IgG1, kappa)
heavy 1: not shown
heavy 2: not shown
light: DIVMTQSPLSLPVTPGEPASISCQASESLVHSNRNTYLHWYLQKPGQSPQLLIYKVSNRFSGVPDRFSGSGSGTDFTLKISRVEAEDVGVYYCSQNTHVPPTFGQGTKVEIERTVAAPSVFIFPPSDEQLKSGTASVVCLLNNFYPREAKVQWKVDNALQSGNSQESVTEQDSKDSTYSLSSTLTLSKADYEKHKVYACEVTHQGLSSPVTKSFNRGEC
notes: as for B1

- He/Con_3a [1]: 93.6 % (control = 100)
- He/Con_2b [2]: 109 % (control = 100)
B5: GpH7-A5/GpH7-B3 variant P271_10E/GpL16-k0 (antibody, human IgG1, kappa)
heavy 1: not shown
heavy 2: not shown
light: DIVMTQSPLSLPVTPGEPASISCQASESLVHSNRNTYLHWYLQKPGQSPQLLIYKVSNRFSGVPDRFSGSGSGTDFTLKISRVEAEDVGVYYCSQNTHVPPTFGQGTKVEIERTVAAPSVFIFPPSDEQLKSGTASVVCLLNNFYPREAKVQWKVDNALQSGNSQESVTEQDSKDSTYSLSSTLTLSKADYEKHKVYACEVTHQGLSSPVTKSFNRGEC
notes: as for B1

- He/Con_3a [1]: 76.2 % (control = 100)
- He/Con_2b [2]: 144 % (control = 100)
B6: GpH7-A5/GpH7-B3 variant S239_01G/GpL16-k0 (antibody, human IgG1, kappa)
heavy 1: not shown
heavy 2: not shown
light: DIVMTQSPLSLPVTPGEPASISCQASESLVHSNRNTYLHWYLQKPGQSPQLLIYKVSNRFSGVPDRFSGSGSGTDFTLKISRVEAEDVGVYYCSQNTHVPPTFGQGTKVEIERTVAAPSVFIFPPSDEQLKSGTASVVCLLNNFYPREAKVQWKVDNALQSGNSQESVTEQDSKDSTYSLSSTLTLSKADYEKHKVYACEVTHQGLSSPVTKSFNRGEC
notes: as for B1

- He/Con_3a [1]: 76.6 % (control = 100)
- He/Con_2b [2]: 108 % (control = 100)
B7: GpH7-A5/GpH7-B3 variant S239_03V/GpL16-k0 (antibody, human IgG1, kappa)
heavy 1: not shown
heavy 2: not shown
light: DIVMTQSPLSLPVTPGEPASISCQASESLVHSNRNTYLHWYLQKPGQSPQLLIYKVSNRFSGVPDRFSGSGSGTDFTLKISRVEAEDVGVYYCSQNTHVPPTFGQGTKVEIERTVAAPSVFIFPPSDEQLKSGTASVVCLLNNFYPREAKVQWKVDNALQSGNSQESVTEQDSKDSTYSLSSTLTLSKADYEKHKVYACEVTHQGLSSPVTKSFNRGEC
notes: as for B1
